Reference: the DeepSol protein solubility set

Test: soluble on expression in E. coli; label from the status in PepcDB or PDB records

Row | Sequence | soluble on expression in E. coli
1 | MAKLDKKVYERELELLQIELVKLQEWVKQEKLKLVVIFEGRDAAGKGGVIKTITEKLNPRVCRVAALPAPTEKEKTQWYFQRYVAHLPAGGEIVLFDRSWYNRAGVEKVMGFCSDEEYQEFLRSCPEFERMLQRSGIILLKYWFSVSDEEQERRFIERINTPLKRWKFSPMDLESRQRWAAYSRAKDEMFAYTDTKHCPWWVVPSDDKKRARLNCISHLLSSVEYQEIEHAPITLPEINKQGYVRPPIEDQTFVPQRY | not soluble
2 | MAKNKVLGRGLADIFPEINEVYEQGLYERANRVVELGIDEVMPNPYQPRKVFSEDSLEELAQSIKEHGLLQPVLVVSENGRYHLIAGERRLRASKLAKMPTIKAIVVDIEQEKMREVALIENIQREDLNPLELARSYKELLESYQMTQEELSKIVKKSRAHVANIMRLLTLSSKVQNALLEEKITSGHAKVLVGLDGEKQELILNSIIGQKLSVRQTEDLARDFKINANFDNKKHGFKQTQTLIAGDELERLNQSLWDHYKLKAALKGNKIVLRCYENSLLEAFMKKMMS | not soluble
3 | MAKTYDYLFKLLLIGDSGVGKTCVLFRFSDDSFNNSFISTIGIDFKIRTIELDGKKIKLQIWDTAGQERFRTITTAYYRGAMGIILVYDITNERSFENIKNWIRNIEEHAASDVERMIIGNKCDIEERREVSRDRGEQLAIEYGTKFLETSAKANLNIDEAFFTLARDIKSKMEQNEMRAGGSVSNTGRVNVGGSGTQKKSFFSNWSCNLL | not soluble
4 | MAKTYKKIGEETKVIEATEPLTILLMGVDTGNVERTETWVGRSDSMILMTVNPKTKKTTMMSLERDILTRIESGNGQAHEAKLNSAYADGGAELAIETIQKMMNIHIDRYVMVNMRGLQKLVDAVGGITVNNILGFPISISDQEEFNTISIGVGEQHIGGEEALVYARMRYQDPEGDYGRQKRQREVIQKVMEKALSLNSIGHYQEILKALSDNMQTNIDLSAKSIPNLLGYKDSFKTIETQQLQGEGEILQGVSYQIVSRAHMLEMQNILRRSLGQEEVTQLETNAVLFEDLFGRAPVGDEDNLEHHHHHH | soluble
5 | MAKVPDLFEDLKNCYSENEDYSSAIDHLSLNQKSFYDASYGSLHETCTDQFVSLRTSETSKMSNFTFKESRVTVSATSSNGKILKKRRLSFSETFTEDDLQSITHDLEETIQPRSAPYTYQSDLRYKLMKLVRQKFVMNDSLNQTIYQDVDKHYLSTTWLNDLQQEVKFDMYAYSSGGDDSKYPVTLKISDSQLFVSAQGEDQPVLLKELPETPKLITGSETDLIFFWKSINSKNYFTSAAYPELFIATKEQSRVHLARGLPSMTDFQIS | soluble
6 | MAKYTREDIEKLVKEENVKYIRLQFTDILGTIKNVEIPVSQLGKALDNKVMFDGSSIEGFVRIEESDMYLYPDLNTFVIFPWTAEKGKVARFICDIYNPDGTPFEGDPRNNLKRILKEMEDLGFSDFNLGPEPEFFLFKLDEKGEPTLELNDKGGYFDLAPTDLGENCRRDIVLELEEMGFEIEASHHEVAPGQHEIDFKYAGAVRSCDDIQTFKLVVKTIARKHGLHATFMPKPLFGVNGSGMHCNLSLFKNGVNAFFDENADLQLSETAKHFIAGIVKHATSFTAVTNPTVNSYKRLVPGYEAPCYVAWSAQNRSPLIRIPASRGISTRVEVRSVDPAANPYLALSVLLAAGLDGIKNKLEAPAPIDRNIYVMSKEERMENGIVDLPATLAEALEEFKSNEVMVKALGEHLFEHFIEAKEIEWDMFRTQVHPWEREQYMSQY | not soluble
7 | MALHHHHHHGVTGELRRRADGIWQRILAHPFVAELYAGTLPMEKFKYYLLQDYNYLVNFAKALSLAASRAPSVDLMKTALELAYGTVTGEMANYEALLKEVGLSLRDAAEAEPNRVNVSYMAYLKSTCALEGFYQCMAALLPCFWSYAEIAERHGGKLRENPVHVYKKWASVYLSPEYRGLVERLRAVLDSSGLSAEELWPYFKEASLYELEFWQAAYEGH | soluble
8 | MALKTDIRGMIWRYPDYFIVGREQCREFARAVKCDHPAFFSEEAAADLGYDALVAPLTFVTILAKYVQLDFFRHVDVGMETMQIVQVDQRFVFHKPVLAGDKLWARMDIHSVDERFGADIVVTRNLCTNDDGELVMEAYTTLMGQQGDGSARLKWDKESGQVIRTALEHHHHHH | not soluble
9 | MALPRITQKEMTEREQRELKTLLDRARIAHGRPLTNSETNSVKKEYIDKLMALREAEAKKARQLKKKQAYKPDTEASFSWSANTPTRGRR | not soluble
10 | MALSKIDTEIEQVDQEKYLRQATSYYQPLEKPLKYGPEVNSLSDLVAALHREFESNYVNIEMVNHLMLSYKSNPREWRKYAKFDRYTYTRNLVDAGNGKFNLLILCWGEGHGSSVHDHADSHCFMKMLKGDLREKRYEYPNRSARDNGRSHHPDGEIDSRELVEIGETPIAVNDVAYINDNLGLHRVENPSHSDTSVSLHLYCPPFDTCSVFQDNLKKTTAKVTFWSKYGVRTKQNEQLEHHHHHH | not soluble
11 | MALTDRLLDAWYKGHPALTLLRPLESLYRRVVDGKRAKFLAGEGDIYRAPVPVIVVGNITIGGTGKTPLILWMIEHCQRKGLRVGVVSRGYGAKPPSLPWRVQPDQSASEAGDEPLLIVQRSGVPLMIDPDRSRAVQALLAAEPLDLILSDDGLQHYRLARDLELVLIDAARGLGNRRCLPAGPLREPVERLSSVDALLYNGATADRDDGYAFTLKPSALINLRSGERQPVSYFPAGQALHAVAGIGNPQRFFNTLEGLHWRPVTHAFADHALYSVQALTFTPALPLVMTEKDAVKCRAFAADDWWYLAVDAVPSDAFVGWFDEQLLRLSPLEHHHHHH | not soluble
12 | MALVKEVLVVLNRLSPFELQESWDNSGLNVGSENSEFSEIVACLEITLKIALNAPQNALIITHHPLIFKPLKTLNDEIYPGNILKILIQKNVSVISMHTNFDKTHLNKHFAHALLEFDGLVEKGLMLVKENANIEFDALVKKIKSSLGVGSLACVKSSQTIKDLAFVCGSGASMFSSLKAQSCLITGDVKYHDAMIAQSLGISLIDATHYYSERGFALIVAEILHSFNYLVTIENFKNPLQIILEHHHHHH | soluble
13 | MALVRPFPIVQVVGFQNSGKTTFIERILEKASEQGVHLGCLKHHGHGGEPQTLTEGKDTDRYKAAGADVTAVEGAGVLQLTARRNWDLARLIELYQFLETDCLLIEGFKKAPYPKVVILSEKEDLEALQAVNIIAIIYRKKEHMTEHQGLPVFHADDPVAVDFVLSQLKGESA | soluble
14 | MALYAVDKPLHLTSHDVVEEARRRLSTRRVGHTGTLDPLATGLLLLVTNESTKLVPFLSGEDKEYIAWVSFGATTPTLDAEGPISEEAPARFDRKDLEAALPRFLEVREQVPPLYSAIKVGGKRAYEAAREGKPLALGPRPVRYLEVELLAFDPEPIPHPIAPSARGWRLAERRGRPVRLPRPLGAYPTAVVRLVVGPGTYVRAFARDLGEMLGTKAFLSGLVRTRVGRVGLERAVALSDLSPEKAIPELDVLPFPVVELSHTEARRVLEGMPLPIPAMGYVTLVDSKRRLLAIAEGDGFKLKIRRVFAKEA | soluble
15 | MAMEIGEDEWKVCCGSSEFAKQMSTSGPLTSQEAIYTARDIWFNQVNVTDWLEAFSAHPQIGNTPSPSINSDFARRSVSEQSTAFATTSASALQELAEWNVLYKKKFGFIFIICASGRTHAEMLHALKERYENRPIVELEIAAMEQMKITELRMAKLFSDKAKVISETDSSSSPVSTKPQDRLRIIGGHLNVAAEAKAPKRSRPPITTHVLDVSRGAPAAGVEVHLEVWSGTTGPSFVHGGGGVWSSVGTSATDRDGRSGPLMDLVDALNPGTYRISFDTAKYSPGCFFPYVSIVFQVTESQKWEHFHVPLLLAPFSFSTYRGS | soluble
16 | MAMVIPARNQMASQFLELPKRTSSLMAPTMVLQGHGGEIYTSQFSSDGSFLASAGYDQQIFLWNVFGECENFAVLKGHKGAIMEVKFNADSSHLVSAGTDKTVRVWDMETGSCIRNFKSHTDIVNSVDVNRRGPQMICSASDDGTVMVHDMRSKEAAKKFICKYQQTAVTFNDAADNVICGGIDNQIKVWDMLRNDVRYVLSGHRDTITSLSVSHNGNFLLSNSMDCSLMSWDIRPFVPAQRLVARYQGASHNFEKNLLKCGWSPRDNYITAGSADRFVYVWNAKSRACVYKLPGHLGSVNCTALHPTQQILLSAGSDKTIFLGELDLEDY | not soluble
